Columns and labels:
[1] = biological target: myh9_human MYH9 (UniProt P35579)
[2] = biological target: myh9_human MYH9 (UniProt P35579); remark: listed apart in the source

Sequence of myh9_human MYH9 (P35579 whole entry): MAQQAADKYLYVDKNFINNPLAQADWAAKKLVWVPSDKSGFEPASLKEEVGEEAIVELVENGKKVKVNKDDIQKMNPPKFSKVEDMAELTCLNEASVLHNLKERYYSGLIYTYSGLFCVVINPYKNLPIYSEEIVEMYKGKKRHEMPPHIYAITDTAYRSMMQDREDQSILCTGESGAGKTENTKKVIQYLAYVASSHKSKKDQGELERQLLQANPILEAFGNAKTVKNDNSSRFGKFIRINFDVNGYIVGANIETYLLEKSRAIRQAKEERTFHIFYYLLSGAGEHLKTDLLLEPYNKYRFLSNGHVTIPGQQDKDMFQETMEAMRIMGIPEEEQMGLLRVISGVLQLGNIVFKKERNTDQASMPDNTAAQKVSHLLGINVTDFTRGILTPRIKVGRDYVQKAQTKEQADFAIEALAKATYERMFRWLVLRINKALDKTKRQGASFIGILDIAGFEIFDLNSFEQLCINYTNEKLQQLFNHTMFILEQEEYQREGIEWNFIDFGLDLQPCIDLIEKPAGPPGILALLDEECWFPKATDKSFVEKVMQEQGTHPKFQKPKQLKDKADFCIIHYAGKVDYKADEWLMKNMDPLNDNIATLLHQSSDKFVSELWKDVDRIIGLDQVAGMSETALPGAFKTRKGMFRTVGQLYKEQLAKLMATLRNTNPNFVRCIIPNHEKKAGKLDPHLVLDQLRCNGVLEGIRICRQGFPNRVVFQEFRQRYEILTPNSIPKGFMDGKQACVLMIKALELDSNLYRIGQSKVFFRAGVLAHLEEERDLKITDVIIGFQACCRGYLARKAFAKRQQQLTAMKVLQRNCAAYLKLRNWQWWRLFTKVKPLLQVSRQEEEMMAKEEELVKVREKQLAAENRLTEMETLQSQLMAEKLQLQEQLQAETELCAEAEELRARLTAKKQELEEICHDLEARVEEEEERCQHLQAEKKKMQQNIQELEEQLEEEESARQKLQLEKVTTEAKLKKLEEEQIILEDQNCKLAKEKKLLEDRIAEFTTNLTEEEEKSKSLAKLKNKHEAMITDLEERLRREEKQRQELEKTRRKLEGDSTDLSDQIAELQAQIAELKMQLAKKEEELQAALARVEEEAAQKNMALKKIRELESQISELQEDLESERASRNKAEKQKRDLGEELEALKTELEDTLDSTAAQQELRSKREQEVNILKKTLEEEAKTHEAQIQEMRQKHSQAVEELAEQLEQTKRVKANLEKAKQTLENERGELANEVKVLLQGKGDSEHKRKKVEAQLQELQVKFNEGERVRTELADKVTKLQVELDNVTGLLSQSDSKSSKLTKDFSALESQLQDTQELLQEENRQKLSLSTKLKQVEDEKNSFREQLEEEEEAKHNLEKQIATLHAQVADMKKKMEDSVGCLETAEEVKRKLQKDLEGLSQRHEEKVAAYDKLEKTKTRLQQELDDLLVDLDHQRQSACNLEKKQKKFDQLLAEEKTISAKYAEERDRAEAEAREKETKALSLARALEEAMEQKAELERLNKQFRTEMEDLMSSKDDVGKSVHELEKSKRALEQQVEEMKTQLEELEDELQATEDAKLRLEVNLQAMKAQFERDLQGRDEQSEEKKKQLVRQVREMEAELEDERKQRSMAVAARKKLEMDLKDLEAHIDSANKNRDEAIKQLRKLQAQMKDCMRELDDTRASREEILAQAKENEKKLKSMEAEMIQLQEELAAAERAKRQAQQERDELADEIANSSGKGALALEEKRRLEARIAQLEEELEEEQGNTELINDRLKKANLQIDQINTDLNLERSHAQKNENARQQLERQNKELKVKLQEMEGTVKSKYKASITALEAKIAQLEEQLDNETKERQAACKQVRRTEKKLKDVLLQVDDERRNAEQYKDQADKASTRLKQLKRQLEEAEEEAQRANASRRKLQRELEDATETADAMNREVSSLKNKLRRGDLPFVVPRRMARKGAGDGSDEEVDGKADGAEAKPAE
Sequence of Protein S100-A4 (Homo sapiens), P26447 C3S;F45W;C81S;C86S (P26447 whole entry C3S/F45W/C81S/C86S): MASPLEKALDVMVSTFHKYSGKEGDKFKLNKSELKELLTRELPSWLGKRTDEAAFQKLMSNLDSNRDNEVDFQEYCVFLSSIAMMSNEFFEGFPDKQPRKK

effect of a mutation on the interaction [1]	effect of a mutation on the interaction [2]	Substance
decreasing interaction strength	–	Protein S100-A4 (Homo sapiens), P26447 C3S;F45W;C81S;C86S
–	with no effect	Protein S100-A4 (Homo sapiens), P26447 F45W

Reference: IntAct's records for PubMed 22460785
